Measurements as given in PMC10371798 (2023).
Values belong to the binder of their own block, whether it stands above or below them.

Biological target: CA-FN domains of human RPTPζ (amino acid residues 34-410) fused to human IgG1 Fc, purified (human, UniProt P23471 34-410)
Assay: AlphaScreen competition with biotinylated TNC(Fg)

IC50: 0.043 µM
B1: Fg domain of human tenascin-C (amino acid residues 1975-2201) (domain or fragment)
chain: GLLYPFPKDCSQAMLNGDTTSGLYTIYLNGDKAEALEVFCDMTSDGGGWIVFLRRKNGRENFYQNWKAYAAGFGDRREEFWLGLDNLNKITAQGQYELRVDLRDHGETAFAVYDKFSVGDAKTRYKLKVEGYSGTAGDSMAYHNGRSFSTFDKDTDSAITNCALSYKGAFWYRNCHRVNLMGRYGDNNHSQGVNWFHWKGHEHSIQFAEMKLRPSNFRNLEGRRKRA

IC50: 0.047 µM
B2: Fg domain of human tenascin-R (amino acid residues 1129-1358) (domain or fragment)
chain: GRVFPHPQDCAQHLMNGDTLSGVYPIFLNGELSQKLQVYCDMTTDGGGWIVFQRRQNGQTDFFRKWADYRVGFGNVEDEFWLGLDNIHRITSQGRYELRVDMRDGQEAAFASYDRFSVEDSRNLYKLRIGSYNGTAGDSLSYHQGRPFSTEDRDNDVAVTNCAMSYKGAWWYKNCHRTNLNGKYGESRHSQGINWYHWKGHEFSIPFVEMKMRPYNHRLMAGRKRQSLQF
